Results: patent US20240270821A1, “GIP/GLP1/GCG TRI-RECEPTOR AGONISTS AND USES THEREOF” (priority 2023, published 2024)

T1: human GIP receptor (human) (UniProt P48546)
T1 sequence (looked up): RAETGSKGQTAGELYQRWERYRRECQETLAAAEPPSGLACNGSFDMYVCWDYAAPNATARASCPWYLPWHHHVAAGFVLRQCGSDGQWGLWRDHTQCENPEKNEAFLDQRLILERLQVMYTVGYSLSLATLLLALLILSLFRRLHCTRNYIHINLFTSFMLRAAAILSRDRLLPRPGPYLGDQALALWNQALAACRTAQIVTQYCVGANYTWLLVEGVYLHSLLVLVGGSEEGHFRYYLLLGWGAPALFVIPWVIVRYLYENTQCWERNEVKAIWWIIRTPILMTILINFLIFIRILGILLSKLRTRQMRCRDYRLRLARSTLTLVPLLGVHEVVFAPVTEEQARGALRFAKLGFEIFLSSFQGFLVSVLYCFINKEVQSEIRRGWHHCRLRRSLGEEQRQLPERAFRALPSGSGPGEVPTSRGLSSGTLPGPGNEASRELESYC

B1: Example 903 (peptide)
chain: YXQGTFTSDXSKXLDKKAQXAFIEYLIEXGPSSGAPPPSGSEEE
modifications: synthetic construct; SITE 2: note = 2-Aminoisobutyric Acid; SITE 10: note = 3-(4-Pyridyl)-L-alanine; SITE 13: note = alpha-methyl-leucine; SITE 17: note = Lysine is chemically modified through conjugation of the epsilon-amino group of the Lysine side chain with (2-[2-(2-Amino-ethoxy)-ethoxy]-acetyl)
B2: Example 906 (peptide)
chain: YXQGTFTSDXSKXLDKKAQXAFIEYLIEXGPSSGAPPPSGSEEE
modifications: synthetic construct; SITE 2: note = 2-Aminoisobutyric Acid; SITE 10: note = 3-(4-Pyridyl)-L-alanine; SITE 13: note = alpha-methyl-leucine; SITE 17: note = Lysine is chemically modified through conjugation of the epsilon-amino group of the Lysine side chain with (gamma-Glu)2-CO-(CH2)16-CO2H; SITE 20:
B3: Example 901 (peptide)
chain: YXQGTFTSDXSKXLDKKAQXAFIEYLIEXGPSSGAPPPSGSE
modifications: synthetic construct; SITE 2: note = 2-Aminoisobutyric Acid; SITE 10: note = 3-(4-Pyridyl)-L-alanine; SITE 13: note = alpha-methyl-leucine; SITE 17: note = Lysine is chemically modified through conjugation of the epsilon-amino group of the Lysine side chain with (2-[2-(2-Amino-ethoxy)-ethoxy]-acetyl)
B4: Example 904 (peptide)
chain: YXQGTFTSDXSKXLDKKAQXAFIEYLIEXGPSSGAPPPSGSE
modifications: synthetic construct; SITE 2: note = 2-Aminoisobutyric Acid; SITE 10: note = 3-(4-Pyridyl)-L-alanine; SITE 13: note = alpha-methyl-leucine; SITE 17: note = Lysine is chemically modified through conjugation of the epsilon-amino group of the Lysine side chain with (gamma-Glu)2-CO-(CH2)16-CO2H; SITE 20:
B5: Example 891 (SEQ ID NO: 897) (peptide)
chain: YXQGTFTSDXSQXLDKKAQXAFIEYLIEXGPSSGAPPPSGSGE
modifications: not fully specified; C-terminus uncertain, likely amide; synthetic construct; SITE 2: note = 2-Aminoisobutyric Acid; SITE 10: note = 3-(4-Pyridyl)-L-alanine; SITE 13: note = alpha-methyl-leucine; SITE 17: note = Lysine is chemically modified through conjugation of the epsilon-amino group of the Lysine side chain with (gamma-Glu)2-CO-(CH2)16-CO2H; SITE 20:
B6: Example 902 (peptide)
chain: YXQGTFTSDXSKXLDKKAQXAFIEYLIEXGPSSGAPPPSGSEE
modifications: synthetic construct; SITE 2: note = 2-Aminoisobutyric Acid; SITE 10: note = 3-(4-Pyridyl)-L-alanine; SITE 13: note = alpha-methyl-leucine; SITE 17: note = Lysine is chemically modified through conjugation of the epsilon-amino group of the Lysine side chain with (2-[2-(2-Amino-ethoxy)-ethoxy]-acetyl)
B7: Example 893 (SEQ ID NO: 899) (peptide)
chain: YXQGTFTSDXSQXLDKKAQXAFIEYLIEXGPSSGAPPPSGSGE
modifications: not fully specified; synthetic construct; SITE 2: note = 2-Aminoisobutyric Acid; SITE 10: note = 3-(4-Pyridyl)-L-alanine; SITE 13: note = alpha-methyl-leucine; SITE 17: note = Lysine is chemically modified through conjugation of the epsilon-amino group of the Lysine side chain with (gamma-Glu)2-CO-(CH2)16-CO2H; SITE 20:
B8: Example 905 (peptide)
chain: YXQGTFTSDXSKXLDKKAQXAFIEYLIEXGPSSGAPPPSGSEE
modifications: synthetic construct; SITE 2: note = 2-Aminoisobutyric Acid; SITE 10: note = 3-(4-Pyridyl)-L-alanine; SITE 13: note = alpha-methyl-leucine; SITE 17: note = Lysine is chemically modified through conjugation of the epsilon-amino group of the Lysine side chain with (gamma-Glu)2-CO-(CH2)16-CO2H; SITE 20:
B9: Example 822 (peptide)
chain: YXQGTFTSDXSQXLDKKAQXAFIEYLLEAGPSSGAPPPSGX
modifications: synthetic construct; SITE 2: note = 2-Aminoisobutyric Acid; SITE 10: note = 3-(4-Pyridyl)-L-alanine; SITE 13: note = alpha-methyl-leucine; SITE 17: note = Lysine is chemically modified through conjugation of the epsilon-amino group of the Lysine side chain with (2-[2-(2-Amino-ethoxy)-ethoxy]-acetyl)
B10: Example 824 (peptide)
chain: YXQGTFTSDXSQXLDKKAQXAFIEYLLEAGPSSXAPPPSGT
modifications: C-terminal amide; acylated; synthetic construct; SITE 2: note = 2-Aminoisobutyric Acid; SITE 10: note = 3-(4-Pyridyl)-L-alanine; SITE 13: note = alpha-methyl-leucine; SITE 17: note = Lysine is chemically modified through conjugation of the epsilon-amino group of the Lysine side chain with (2-[2-(2-Amino-ethoxy)-ethoxy]-acetyl)
B11: Example 823 (peptide)
chain: YXQGTFTSDXSQXLDKKAQXAFIEYLLEAGPSSGAPPPSGT
modifications: synthetic construct; SITE 2: note = 2-Aminoisobutyric Acid; SITE 10: note = 3-(4-Pyridyl)-L-alanine; SITE 13: note = alpha-methyl-leucine; SITE 17: note = Lysine is chemically modified through conjugation of the epsilon-amino group of the Lysine side chain with (2-[2-(2-Amino-ethoxy)-ethoxy]-acetyl)
B12: Example 883 (SEQ ID NO: 889) (peptide)
chain: YXQGTFTSDXSQXLDKKAQXAFIEYLIAGGPSSGAPPPSGE
modifications: synthetic construct; SITE 2: note = 2-Aminoisobutyric Acid; SITE 10: note = 3-(4-Pyridyl)-L-alanine; SITE 13: note = alpha-methyl-leucine; SITE 17: note = Lysine is chemically modified through conjugation of the epsilon-amino group of the Lysine side chain with (gamma-Glu)2-CO-(CH2)16-CO2H; SITE 20:
B13: Example 909 (peptide)
chain: YXQGTFTSDXSRXLDKKAQXAFIEXLLEGGPSSGAPPPSGS
modifications: synthetic construct; SITE 2: note = 2-Aminoisobutyric Acid; SITE 10: note = 3-(4-Pyridyl)-L-alanine; SITE 13: note = alpha-methyl-leucine; SITE 17: note = Lysine is chemically modified through conjugation of the epsilon-amino group of the Lysine side chain with (2-[2-(2-Amino-ethoxy)-ethoxy]-acetyl)
B14: Example 910 (peptide)
chain: YXQGTFTSDXSQXLDKKAQXAFIEXLLEGGPSSGAPPPSGS
modifications: synthetic construct; SITE 2: note = 2-Aminoisobutyric Acid; SITE 10: note = 3-(4-Pyridyl)-L-alanine; SITE 13: note = alpha-methyl-leucine; SITE 17: note = Lysine is chemically modified through conjugation of the epsilon-amino group of the Lysine side chain with (2-[2-(2-Amino-ethoxy)-ethoxy]-acetyl)
B15: Example 911 (peptide)
chain: YXQGTFTSDXSQXLDXKAQXAFIEXLLEGGPSSGAPPPSGS
modifications: acylated Lys AEEA-γGlu-C18 diacid; non-natural residues; C-terminal amide; synthetic construct; SITE 2: note = 2-Aminoisobutyric Acid; SITE 10: note = 3-(4-Pyridyl)-L-alanine; SITE 13: note = alpha-methyl-leucine; SITE 16: note = L-ornithine; SITE 17: note = Lysine is chemically modified through conjugation of the epsilon-amino group of the Lysine side chain with (2-[2-(2-

What was measured:
Assay in all cases: cell-based or functional assay
hGLP-1R = hGLP-1R (Homo sapiens, UniProt P43220)
Sequence of hGLP-1R (P43220 24-463): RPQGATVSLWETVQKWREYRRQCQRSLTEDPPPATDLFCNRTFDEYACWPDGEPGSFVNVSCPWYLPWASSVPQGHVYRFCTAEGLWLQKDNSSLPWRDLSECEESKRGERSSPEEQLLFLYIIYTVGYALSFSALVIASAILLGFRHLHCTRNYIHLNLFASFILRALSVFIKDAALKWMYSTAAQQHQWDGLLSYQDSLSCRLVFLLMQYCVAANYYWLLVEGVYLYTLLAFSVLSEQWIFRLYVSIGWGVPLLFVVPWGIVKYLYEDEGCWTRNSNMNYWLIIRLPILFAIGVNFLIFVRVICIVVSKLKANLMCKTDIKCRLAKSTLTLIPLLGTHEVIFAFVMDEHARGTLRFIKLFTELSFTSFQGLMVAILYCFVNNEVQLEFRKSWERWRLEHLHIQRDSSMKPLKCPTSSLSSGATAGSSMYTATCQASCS

[1] = target: human glucagon receptor (human) (UniProt P47871)
Sequence of human glucagon receptor (human) (P47871 26-477): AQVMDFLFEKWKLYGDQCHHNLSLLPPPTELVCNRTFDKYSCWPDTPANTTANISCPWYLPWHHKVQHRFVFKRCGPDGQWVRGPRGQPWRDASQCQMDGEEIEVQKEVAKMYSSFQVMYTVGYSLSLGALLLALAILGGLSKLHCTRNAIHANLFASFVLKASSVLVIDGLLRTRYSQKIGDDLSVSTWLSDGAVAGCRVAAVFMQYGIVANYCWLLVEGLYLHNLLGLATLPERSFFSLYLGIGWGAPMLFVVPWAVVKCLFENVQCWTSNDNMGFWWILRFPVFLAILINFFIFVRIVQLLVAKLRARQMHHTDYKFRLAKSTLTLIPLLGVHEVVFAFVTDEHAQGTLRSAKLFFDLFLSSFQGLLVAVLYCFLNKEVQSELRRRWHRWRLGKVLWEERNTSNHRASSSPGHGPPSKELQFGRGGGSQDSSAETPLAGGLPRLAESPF

[2] = target: T1, human GIP receptor (human)

Row | Binder | Relative cAMP EC50 (hGLP-1R) | cAMP Rel EC50 (1% HSA) (hGLP-1R) | Relative cAMP EC50 [1] | cAMP Rel EC50 (1% HSA) [1] | Relative cAMP EC50 [2] | cAMP Rel EC50 (1% HSA) [2] | cAMP Rel EC50 (hGLP-1R) | cAMP Rel EC50 [1] | cAMP Rel EC50 [2]
1 | B1 | 0.0027 µM | 0.387 µM | 0.0129 µM | 1.63 µM | 0.000277 µM | 0.0312 µM |  |  | 
2 | B2 | 0.00248 µM | 0.236 µM | 0.0147 µM | 1.17 µM | 0.000212 µM | 0.0154 µM |  |  | 
3 | B3 | 0.00126 µM | 0.193 µM | 0.00909 µM | 1.15 µM | 0.00017 µM | 0.034 µM |  |  | 
4 | B4 | 0.00194 µM | 0.198 µM | 0.00988 µM | 1.33 µM | 0.000194 µM | 0.015 µM |  |  | 
5 | B5 |  |  |  |  |  |  | 0.33 µM | 0.581 µM | 0.016 µM
6 | B6 | 0.00258 µM | 0.232 µM | 0.0159 µM | 1.36 µM | 0.00019 µM | 0.0285 µM |  |  | 
7 | B7 |  |  |  |  |  |  | 0.305 µM | 0.508 µM | 0.0214 µM
8 | B8 | 0.00252 µM | 0.215 µM | 0.0123 µM | 1.39 µM | 0.000217 µM | 0.0104 µM |  |  | 
9 | B9 | 0.00251 µM | 0.322 µM | 0.0116 µM | 2.1 µM | 0.000186 µM | 0.0181 µM |  |  | 
10 | B10 | 0.00243 µM | 0.343 µM | 0.00792 µM | 1.11 µM | 0.000123 µM | 0.0289 µM |  |  | 
11 | B11 | 0.00296 µM | 0.421 µM | 0.00775 µM | 1.41 µM | 0.000171 µM | 0.0256 µM |  |  | 
12 | B12 |  |  |  |  |  |  | 0.12 µM | 0.578 µM | 0.00941 µM
13 | B13 | 0.00172 µM | 0.243 µM | 0.00682 µM | 1.74 µM | 0.000121 µM | 0.0202 µM |  |  | 
14 | B14 | 0.00149 µM | 0.239 µM | 0.00976 µM | 2.64 µM | 0.000111 µM | 0.0257 µM |  |  | 
15 | B15 |  | 0.255 µM |  | 2.39 µM |  | 0.0266 µM |  |  | 
